Where a chain is given by its changes, count along the chain named. Numbers in names are those of the source.
T1: Recombinant soluble human IL-6R (human, UniProt P08887 20-365)
T1 construct: extracellular domain; also called sIL-6R; hIL-6R
T1 sequence (looked up): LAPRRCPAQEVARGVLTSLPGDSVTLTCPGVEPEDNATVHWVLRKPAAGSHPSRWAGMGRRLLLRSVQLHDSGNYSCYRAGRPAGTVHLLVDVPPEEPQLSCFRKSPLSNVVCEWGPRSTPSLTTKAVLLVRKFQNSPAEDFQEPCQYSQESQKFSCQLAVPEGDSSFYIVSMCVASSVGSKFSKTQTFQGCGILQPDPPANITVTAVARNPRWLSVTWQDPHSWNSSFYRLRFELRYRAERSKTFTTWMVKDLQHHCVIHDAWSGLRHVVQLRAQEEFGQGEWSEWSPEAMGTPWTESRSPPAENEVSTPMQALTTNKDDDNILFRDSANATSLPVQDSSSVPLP

T2: Membrane-bound IL-6 receptor on TF1 cells (human, UniProt P08887 20-468)
T2 sequence (looked up): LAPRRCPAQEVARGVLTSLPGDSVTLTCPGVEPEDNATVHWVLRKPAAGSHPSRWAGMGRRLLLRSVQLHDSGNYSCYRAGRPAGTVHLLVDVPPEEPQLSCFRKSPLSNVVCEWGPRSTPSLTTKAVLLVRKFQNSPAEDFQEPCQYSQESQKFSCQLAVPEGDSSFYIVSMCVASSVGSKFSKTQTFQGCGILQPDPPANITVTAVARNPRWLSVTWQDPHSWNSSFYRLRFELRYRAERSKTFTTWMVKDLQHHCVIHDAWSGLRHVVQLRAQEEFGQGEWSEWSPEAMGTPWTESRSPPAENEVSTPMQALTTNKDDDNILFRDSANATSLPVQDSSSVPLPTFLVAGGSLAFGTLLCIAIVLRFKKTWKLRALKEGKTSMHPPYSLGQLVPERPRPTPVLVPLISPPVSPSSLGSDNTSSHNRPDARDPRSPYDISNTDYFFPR

B1: 20A11 (VHH)
VHH: EVQLVESGGGLVQPGGSLRLSCAASGSVFKINVMAWYRQAPGKGRELVAGIISGGSTSYADSVKGRFTISRDNAKNTLYLQMNSLRPEDTAVYYCAFITTESDYDLGRRYWGQGTLVTVSS
B2: ID-123V (VHH)
VHH: EVQLVESGGGLVQAGGSTRLTCKASGSISNINSINVMAWYRQAPGKGRELVAIIGKGGGTNYADFVKGRFTISRDAAKNTVYLQMNSLRPEDTAVYYCYADYEDHDSPHNASWGQGTQVTVSS
notes: equivalent to ID-142V except N-terminal Glu (lacks the E1D mutation) and tag; not shown: C-terminal Flag, His tag
B3: Tocilizumab (antibody, V domains shown)
VH: QVQLQESGPGLVRPSQTLSLTCTVSGYSITSDHAWSWVRQPPGRGLEWIGYISYSGITTYNPSLKSRVTMLRDTSKNQFSLRLSSVTAADTAVYYCARSLARTTAMDYWGQGSLVTVSS
VL: DIQMTQSPSSLSASVGDRVTITCRASQDISSYLNWYQQKPGKAPKLLIYYTSRLHSGVPSRFSGSGSGTDFTFTISSLQPEDIATYYCQQGNTLPYTFGQGTKVEIKR
B4: ID-142V (VHH)
VHH: B2 VHH with E1D
B5: ID-38F (VHH)
VHH: DVQLVESGGGLVQPGGSLKLSCAASGFDFSSHWMYWVRQAPGKELEWLSEINTNGLITHYGDSVKGRFTVSRNNAANKMYLELTRLEPEDTALYYCARNQHGLNKGQGTQVTVSS
notes: also called ID38F (S. cerevisiae-produced); anti-TNF ICVD

Legend:
[1] = target: T1, Recombinant soluble human IL-6R; assay: gp130 ELISA: inhibition of binding of sIL-6R/IL-6 complex to coated gp130
[2] = target: T2, Membrane-bound IL-6 receptor on TF1 …; assay: cell-based or functional assay
[3] = target: T1, Recombinant soluble human IL-6R; assay: Biacore (SPR), ICVD fixed to the sensor plate, soluble human IL-6R flowed; ICVD on the chip, soluble human IL-6R flowed
Description: The ICVD was fixed to the Biacore sensor plate and soluble human IL-6R was flowed over the plate to detect binding.

[4] = target: T1, Recombinant soluble human IL-6R; assay: cell-based or functional assay
[5] = target: T1, Recombinant soluble human IL-6R; assay: cell-based or functional assay; remark: listed apart in the source
[6] = target: T1, Recombinant soluble human IL-6R; assay: Biacore (SPR), soluble human IL-6R flowed over the plate
Human TNF-alpha [7] = target: T3, Human TNF-alpha (human, UniProt P01375 77-233); assay: switchSENSE, TNFa immobilised, fluorescence
T3 construct: there it was coupled to the chip via covalently linked DNA in one orientation; also called hTNF-alpha; h-TNF-alpha

Human TNF-alpha [8] = target: T3, Human TNF-alpha; assay: cell-based or functional assay
Human TNF-alpha [9] = target: T3, Human TNF-alpha; assay: competition ELISA: inhibition of TNF-alpha binding to coated TNFR-2 (Enbrel)
Description: An ELISA plate was coated overnight with 1.5 μg/ml TNFR-2 (Enbrel) in PBS overnight at 4° C. The plate was then washed and blocked in 1% BSA for >1 h at RT before being used. […] Finally, the plate was washed again and 100 μl/well of TMB were added. Colour development was stopped by adding 50 μl/well of 0.5M H₂SO₄ and OD450 nm measurements were taken using a BMG Labtek Fluostar Omega plate reader.

Human TNF-alpha [10] = target: T3, Human TNF-alpha; assay: switchSENSE, ID-38F immobilised, TNF-alpha flowed, fluorescence

T3 sequence (P01375 77-233 limits assumed): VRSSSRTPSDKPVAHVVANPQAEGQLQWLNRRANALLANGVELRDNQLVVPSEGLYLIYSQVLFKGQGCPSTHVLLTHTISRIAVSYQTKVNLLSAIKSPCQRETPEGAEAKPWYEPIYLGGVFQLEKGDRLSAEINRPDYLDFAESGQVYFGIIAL

Binder	EC50 [1]	TF-1 cell assay EC50 nM (5 ng/ml IL-6) [2]	M1 cellular assay EC50 [4]	EC50, nM, M1 cell assay (% inhibition of the IL-6+IL-6R response) [5]	further results
B1	0.22 nM	0.56 nM	–	–	–
B2	0.498 nM	4.5 nM	4.2 nM	2.31 nM	Kd [3]: 1.1 nM
B3	1.83 nM	1.12 nM	5.36 nM	4.16 nM	Kd [6]: 0.39 nM
B4	–	–	–	4.05 nM	–
B5	–	–	–	–	kon (Human TNF-alpha [7]): 8.1e+06 M⁻¹ s⁻¹; EC50 (nM), L929 assay (neutralisation of TNF-alpha-induced cytotoxicity) (Human TNF-alpha [8]): 0.127 nM; EC50 (Human TNF-alpha [9]): 0.383 nM; Kd (Human TNF-alpha [10]): 0.0168 nM; koff (Human TNF-alpha [10]): 4.2e-05 s⁻¹; kon (Human TNF-alpha [10]): 2.5e+06 M⁻¹ s⁻¹
